Results taken from the DeepSol protein solubility set.

Assay: soluble on expression in E. coli; label from the status in PepcDB or PDB records
With “MADNLPSDFDVIVIGTGLPESIIAAACSRSGQRVLHVDSRSYYGGNWASFSFSGLLSWLKEYQENNDVVTENSMWQEQILENEEAIPLSSKDKTIQHVEVFCYASQDLHKDVEEAGALQKNHASVTSAQSAEAAEAAETSCLPTAVEPLSMGSCEIPAEQSQCPGPESSPEVNDAEATGKKENSDAKSSTEEPSENVPKVQDNTETPKKNRITYSQIIKEGRRFNIDLVSKLLYSRGLLIDLLIKSNVSRYAEFKNITRILAFREGTVEQVPCSRADVFNSKQLTMVEKRMLMKFLTFCVEYEEHPDEYRAYEGTTFSEYLKTQKLTPNLQYFVLHSIAMTSETTSCTVDGLKATKKFLQCLGRYGNTPFLFPLYGQGELPQCFCRMCAVFGGIYCLRHSVQCLVVDKESRKCKAVIDQFGQRIISKHFIIEDSYLSENTCSRVQYRQISRAVLITDGSVLKTDADQQVSILTVPAEEPGSFAVRVIELCSSTMTCMKGTYLVHLTCMSSKTAREDLERVVQKLFTPYTEIEAENEQVEKPRLLWALYFNMRDSSDISRDCYNDLPSNVYVCSGPDSGLGNDNAVKQAETLFQQICPNEDFCPAPPNPEDIVLDGDSSQQEVPESSVTPETNSETPKESTVLGNPEEPSE” the “soluble on expression in E. coli” value was “soluble”. For “MADNPASSSSQQLLALRVMRLARPKFAPVDGFSHDPVDPTGFGELLAGKVSEISKESRQDLPIGEYLIAPQMFENIYLGETFTFYVNVVNESEKTVSSVSLKCELQTSTQRVVLPCSVQDATIESSKCEGQVISHEVKEIGQHILICSVNYKTSNGENMYFRKFFKFPVSKPIDVKTKFYSAENQDVYLEAQIENTSNANMFLEKVELDPSQHYNVTSIAHEDEFGDVGKLLKPKDIRQFLFCLTPADVHNTLGYKDLTSIGKLDMSWRTSMGEKGRLQTSALQRIAPGYGDVRLSVEKTPACVDVQKPFEVSCRLYNCSERALDLQLRLEQPSNRHLVFCSPSGVSLGQLPPSQHVDFSLNVFPVTVGIQSISGIRITDTFTKRIYEHDDIAQIFVS”, the “soluble on expression in E. coli” value was “not soluble”. With “MADPIDNNSGKYTVQRFPAVADPADPGYSRCTTWVQAVSHGFHQQRRDDEYLAKTLTAYQTDKRELTGVYVNGSVPDHSLGADVPVATYATMRKALNIGFGRQLEAHLVTAVTVRGTHRRNGILRGMITADLEAAKDDGLAMAALTASEASIYGRFGFGVATFERSIKVDTGPRFRLRGLPQGTVEVADPSVLLDVAPQVFERLQRLSPGSIDRQEYYRLVASGSIGHDGKPDTSVRCALHYDLSGSLDGYVSYRFKGWDHKPYTMEIVDLVAASNAAYLDLWRFLGSIDLIDEVTWVEAPVDDPLAWALEDPRCIEASEIRDMLWLRILDTPAALQARSFPVAGRLVLEVTDSLGLAGGTWVLESDGGAAAVVKEAAGETPDLSLDAADLGSIYLGAVSPVTLAAAGRIQEKTPGAALLAQQLFAVERSAHCLTHF” the “soluble on expression in E. coli” value was “soluble”. With “MADPNESGLSKSVEIGGISDKLDSMKLSKSKLTFTDLPMDALYECFKQLDYLERMPLRKVCRKFKNAVDGMDPGFKKIRICIYEPEAFDVEFDSNLFYFVKESGNATHYSKFNPRKMLKWKFGNGEDSLEVVMKFVTKMMNFSKYCCKLIERILKQSAYPNLKKIHLFGLNSRQTPSILRHFKPGKLEFLWSDSFNAETMKEMYKLDQWKMAKSQFENIKIRDQCAPGIPSTFGYLWNYHRYAKLVTVGKAVEIKNCLMKSTNFKKWEFCMGMSLDAARVFDPNASGFEISRDGGVKGTIRCLFKGHSVKIDFSPWKFEITKE” the “soluble on expression in E. coli” value was “not soluble”. In the case of “MADPSFASGRLGSRLQGSIAMIAEELLRAGRLDDALKALQEQVRSQPSNATLRIFLFQLLAVMGQWARAQNQLKVVGELDASALPMVQTYSTAIDCEALRREVFAGRLTPVILGQPAEWIAPLLQALSLDAEGHGEAAQALREQAFDAAPAVPGRIGEAPFAWLADADTRLGPVLEVIVNGRYAWLPMSNLRSLKVEAPSDLRDLVWLPAELTLANGGATVALLPARYAETVEHGDDAARLGRKTEWLDSGLPVGQRLFVTDAGETALFDLRELDFEPTDA”, the “soluble on expression in E. coli” value was “not soluble”. With “MADRAEMFSLSTFHSLSPPGCRPPQDISLEEFDDEDLSEITDDCGLGLSYDSDHCEKDSLSLGRSEQPHPICSFQDDFQEFEMIDDNEEEDDEEEEEEEEEEEDGDRQGKAGGGPGSQALAGDSLIPSPSLEESHKLRPTTLHLTTLGAQDSLNNNNGGFTSAPPSSWQETVLRSPAQEPLKELPAPLLPAEEERHEVQSLARPGCDCEGNQPPEQPASSGGASPSSDPGIEADLRSHSSGGHEGRRSSQELSSPGSDSEDAGGARLGRMISSISETELELSSDGGSSSGRSSHLTNSIEEASSPASEPEPEPEPLHEPPRRPAFLPVGQDDTNSEYESGSESEPDLSEDADSPWLLSNLVSRMISEGSSPIRCPGQCLSPAPRLPEEAASQANSVPQDCQDPEAGPHVELVDMDTLCGPPPPAPAAPRLGPAQPGPCLFLSNPTRDTITPLWATPGRTARPGRSCSAACSEEEEEDEEEDEEDEEDAEDSVVPPGSRTTGSTAPLDASLVYDAVKYTLVVDEHTQLELVSLRRCAGLGNDSEEDSSCEASEEEAGATLLGSDQVPEDASPDSPDLTFSKKFLNVFVNSTSRSSSTESFGLFSCVVNGEEREQTHRAVFRFIPRHPDELELDVDDPVLVEAEEDDFWFRGFNMRTGERGVFPAFYAHAVPGPAKDLLGSKRSPCWVDRFDVQFLGSVEVP” the “soluble on expression in E. coli” value was “soluble”. With “MADSNDLMSEFQKLQQETSKIQSHLTKDFLSSSAKLSENRVLQATQELCGKLTEKQKVQDDTINLLLSALGQIQENQNKILNQFASMQSQLDIVKRRQDAYERDLIQQKPSVPEQKVGESSKKSPRSAESALKYVETCTKVVDLCIAVSMPGRLFSIGANKMESVEQLKMKIECQTGIPRTKFWLRLHGKPLYDDKKLADYKWDTSVELLVRAS” the “soluble on expression in E. coli” value was “not soluble”. With “MADVIEIRGPVYNGSDINDIIDTYGENNALTIDATKFAAFYYDIDDNVTTETLSILAVPGTEGNVIGEGGIVYETTIQQVDYEFYRPAAGWSNYSLIGFFAEKYIPINPDKADKLAKLVLDSDDKYTIRTGEQLDLGEGYSIEAKQVDVDGEKVWLEFTKDGEFVDDEIISVVSGSDNTWEVELDDIQDEDDVVVLRVHVNQVFQGAVDSIAQIEGLWLIDYTNAMKIESDDEFGNLDNVKINGDTLTITNEDTFTLTRDDEEEIAEGLFFKTADDTRALEHHHHHH” the “soluble on expression in E. coli” value was “soluble”. In the case of “MAEANPRRGKMRFRRNAASFPGNLHLVLVLRPTSFLQRTFTDIGFWFSQEDFMPKLPVVMLSSVSDLLTYIDDKQLTPELGGTLQYCHSEWIIFRNAIENFALTVKEMAQMLQSFGTELAETELPDDIPSIEEILAIRAERYHLLKNDITAVTKEGKILLTNLEVPDTEGAVSSRLECHRQISGDWQTINKLLTQVHDMETAFDGFWEKHQLKMEQYLQLWKFEQDFQQLVTEVEFLLNQQAELADVTGTIAQVKQKIKKLENLDENSQELLSKAQFVILHGHKLAANHHYALDLICQRCNELRYLSDILVNEIKAKRIQLSRTFKMHKLLQQARQCCDEGECLLANQEIDKFQSKEDAQKALQDIENFLEMALPFINYEPETLQYEFDVILSPELKVQMKTIQLKLENIRSIFENQQAGFRNLADKHVRPIQFVVPTPENLVTSGTPFFSSKQGKKTWRQNQSNLKIEVVPDCQEKRSSGPSSSLDNGNSLDVLKNHVLNELIQTERVYVRELYTVLLGYRAEMDNPEMFDLMPPLLRNKKDILFGNMAEIYEFHNDIFLSSLENCAHAPERVGPCFLERKDDFQMYAKYCQNKPRSETIWRKYSECAFFQECQRKLKHRLRLDSYLLKPVQRITKYQLLLKELLKYSKDCEGSALLKKALDAMLDLLKSVNDSMHQIAINGYIGNLNELGKMIMQGGFSVWIGHKKGATKMKDLARFKPMQRHLFLYEKAIVFCKRRVESGEGSDRYPSYSFKHCWKMDEVGITEYVKGDNRKFEIWYGEKEEVYIVQASNVDVKMTWLKEIRNILLKQQELLTVKKRKQQDQLTERDKFQISLQQNDEKQQGAFISTEETELEHTSTVVEVCEAIASVQAEANTVWTEASQSAEISEEPAEWSSNYFYPTYDENEEENRPLMRPVSEMALLY”, the “soluble on expression in E. coli” value was “soluble”. For “MAEEEVGNSQRQSEEIEAMAAIYGEEWCVIDENAKIFCIRVTDFMDDPKWTLCLQVMLPSEYPGTAPPSYQLNAPWLKGQERADLSNSLEEIYVHNMGESILYQWVEKIRDALIQKSQITEPDPDVKKKTEEVEVESEEDPILEHPPENPVKTLDLKISEETQPETEELPPVAHGVPITDRRSTFQAHVAPVVCPEQVKLVLAKLYENKKIASATHNIYAYRIFCEDKQTFLQDCEDDGETAAGGRLLHLMEILNVKNVMVVVSRWYGGILLGPDRFKHINNCARNILVEKNFTNTPDESTKNLGKKKVKKDKKKNDH”, the “soluble on expression in E. coli” value was “soluble”.
